Laboratory results published in the supplement of paper PMC10724198.
± gives the standard deviation of the averaged measurements.

Tested on: Saccharomyces cerevisiae
Experiment: protein stability index of tFT-peptide fusion (C-terminal peptide) (PSI (0-1 scale)); higher = more stable (slower turnover)
Conditions: genetic background: wild type; temperature: 30 C
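Further: PSI is a weighted mean of sequencing reads over stability bins, variants kept only with over 10 reads, mCherry proximal and sfGFP distal, peptide attached via GGGS linker.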

Row | Sequence | protein stability index
1 | SSRPLYLFSALR | 0.689 ± 0.053
2 | SSRTFRFRPPTI | 0.702 ± 0.01
3 | SSRWSMEHMAAW | 0.715 ± 0.059
4 | SSSACNMPVVRL | 0.705 ± 0.05
5 | SSSCRPVSSAIV | 0.651 ± 0.089
6 | SSSLLFVLGPSW | 0.715 ± 0.034
7 | SSSLRLCSCAGQ | 0.723 ± 0.049
8 | SSSRCPRLPLPS | 0.6358 ± 0.0012
9 | SSSVLPESFSPS | 0.687 ± 0.036
10 | SSSYCHPSCVSC | 0.661 ± 0.14
11 | SSTALAFAPYLL | 0.6894 ± 0.005
12 | SSTEYYDIRKIR | 0.675 ± 0.025
13 | SSTFPRPSLRPV | 0.64 ± 0.091
14 | SSVRIGRNLYVW | 0.754 ± 0.13
15 | SSVRPHPAPPHT | 0.701 ± 0.01
16 | SSVSARHVPCSP | 0.689 ± 0.027
17 | SSVSRIYTPSSL | 0.677 ± 0.12
18 | SSVYLRRSCDHD | 0.699 ± 0.017
19 | SSWEMMLYRLTE | 0.693 ± 0.021
20 | STCRCGGFRNGS | 0.762 ± 0.068
21 | STEHAPDLKSER | 0.695 ± 0.077
22 | STEIHIKLNAWT | 0.687 ± 0.082
23 | STGRLQLGNCLT | 0.635 ± 0.015
24 | STLSSRLSLPYR | 0.728 ± 0.07
25 | STPDIRYFPPWC | 0.706 ± 0.027

Row | Sequence | protein stability index
26 | STPLPPLSLPLF | 0.685 ± 0.016
27 | STQDIRTTKRVA | 0.681 ± 0.077
28 | STRTNPSYFTYQ | 0.675 ± 0.013
29 | STTIRTPSGMFR | 0.661 ± 0.0057
30 | STTPASLLGHVF | 0.6441 ± 0.0061
31 | STVLGPPLGLGT | 0.69 ± 0.054
32 | STVPSLVAGATF | 0.729 ± 0.11
33 | SVARGGGVVEWG | 0.705 ± 0.13
34 | SVATFDLHAGEW | 0.75 ± 0.01
35 | SVAVTGSTLVLI | 0.628 ± 0.036
36 | SVCLRASSCFRS | 0.648 ± 0.051
37 | SVCPQALNLPPH | 0.723 ± 0.043
38 | SVFSVVLSLSGS | 0.706 ± 0.051
39 | SVGGILWLMLEG | 0.677 ± 0.044
40 | SVIFSRSFCCPS | 0.639 ± 0.11
41 | SVLCRIGAGCAM | 0.629 ± 0.018
42 | SVLEGGRWGFTR | 0.758 ± 0.038
43 | SVLFDIGFSCRF | 0.808 ± 0.026
44 | SVLLRPPLLFHP | 0.722 ± 0.019
45 | SVLPELHAVPLF | 0.679 ± 0.008
46 | SVQWPITIEVWK | 0.631 ± 0.014
47 | SVRFPPTFTMTL | 0.701 ± 0.042
48 | SVSNSRCGRLML | 0.71 ± 0.046
49 | SVSPRAPPILPP | 0.723 ± 0.058
50 | SVSPRVSSLSPL | 0.671 ± 0.013

Row | Sequence | protein stability index
51 | SVSRTARELREV | 0.65902 ± 0.00035
52 | SVVGRLVGGFRW | 0.706 ± 0.021
53 | SVVSFIRRRSFL | 0.8656 ± 0.0084
54 | SVYLIRSLEALR | 0.679 ± 0.019
55 | SWFCSWVVRFFR | 0.691 ± 0.065
56 | SWLRPTCLDLYF | 0.76 ± 0.029
57 | SWSRAAYKGPWG | 0.702 ± 0.015
58 | SWTGDGWMWRRR | 0.658 ± 0.019
59 | SYESKPPLSWDS | 0.73 ± 0.11
60 | SYGIETRLKGKK | 0.63 ± 0.082
61 | SYKSLGLVEFRV | 0.712 ± 0.054
62 | SYSSRSCALRVI | 0.533 ± 0.043
63 | TAGAYSLSTGNH | 0.651 ± 0.024
64 | TALSPPVPTLPP | 0.7 ± 0.013
65 | TARPDKDYPRLA | 0.678 ± 0.013
66 | TARPPSPPSTRL | 0.732 ± 0.036
67 | TASLSPSHRFYS | 0.66863 ± 0.00061
68 | TATPQRQPHKSP | 0.706 ± 0.013
69 | TATRIPHTPIPL | 0.732 ± 0.037
70 | TAVIRASRFEEI | 0.672 ± 0.0055
71 | TAWVDSMVCMLL | 0.71 ± 0.034
72 | TCDSGSEDNVAA | 0.7053 ± 0.0032
73 | TCERGGQIKCRV | 0.657 ± 0.058
74 | TCLWVCARGFGG | 0.693 ± 0.021
75 | TCNWQGASSIIG | 0.6765 ± 0.0033

Row | Sequence | protein stability index
76 | TDFAVTKDFTEI | 0.683 ± 0.033
77 | TDTCLQDCLVFV | 0.546 ± 0.039
78 | TECGKVGGGGEA | 0.689 ± 0.062
79 | TECGVRRGLVGR | 0.651 ± 0.025
80 | TEKTEAKNCNTK | 0.697 ± 0.0089
81 | TFLFARLSFCKH | 0.613 ± 0.0071
82 | TFRADGYFFGRR | 0.637 ± 0.042
83 | TGCEVSINSCVE | 0.656 ± 0.046
84 | TGDFFGGLGTWS | 0.701 ± 0.016
85 | TGGESEPRDTIQ | 0.701 ± 0.017
86 | TGKQNRYVKKEK | 0.6955 ± 0.0031
87 | TGLLLGLFGCML | 0.648 ± 0.068
88 | TGLSFIRCLDFK | 0.688 ± 0.055
89 | TGMRRLPGEVCV | 0.581 ± 0.017
90 | TGQVLKYVVGSQ | 0.711 ± 0.055
91 | TGRLDFSIQYYR | 0.6986 ± 0.0069
92 | TGSIMYDLEVDK | 0.6795 ± 0.0039
93 | TGYEVAGWVNWC | 0.711 ± 0.018
94 | THGFKQLTTPLD | 0.676 ± 0.014
95 | TIHKRTLEGSYN | 0.65 ± 0.048
96 | TILKKKNRRNKE | 0.697 ± 0.024
97 | TILLNWSQVHME | 0.7 ± 0.016
98 | TKKKQKIKKNNS | 0.748 ± 0.042
99 | TKKKTINRTQKQ | 0.713 ± 0.043
100 | TKKKTKKKEQKE | 0.6627 ± 0.0027

Row | Sequence | protein stability index
101 | TKKKTTNKIIKI | 0.671 ± 0.054
102 | TKKNDKIRIQKS | 0.741 ± 0.043
103 | TKSWSLNGTYLL | 0.703 ± 0.034
104 | TKTKKKKNKKQE | 0.719 ± 0.067
105 | TKTNKALKTSKI | 0.699 ± 0.061
106 | TLARLISGKRLL | 0.648 ± 0.022
107 | TLEGRQKEMGIA | 0.691 ± 0.037
108 | TLEHRHPAIHPE | 0.723 ± 0.046
109 | TLGKPVGLARLS | 0.692 ± 0.035
110 | TLKMKHKPKKNL | 0.6583 ± 0.0035
111 | TLLLLLPPLPSF | 0.598 ± 0.023
112 | TLSPPPLSPSAP | 0.711 ± 0.013
113 | TLVLQFGRKRFG | 0.629 ± 0.013
114 | TLWLVSTAVLDC | 0.534 ± 0.036
115 | TNCNSHKLMAAL | 0.679 ± 0.011
116 | TNGYWVIACKKF | 0.672 ± 0.069
117 | TNTPSYSSRAEF | 0.733 ± 0.11
118 | TPGGPLLHSGFL | 0.755 ± 0.085
119 | TPGLVRVGSVSF | 0.708 ± 0.017
120 | TPLSSPHPSPPP | 0.595 ± 0.045
121 | TPMEKRQDANIN | 0.691 ± 0.015
122 | TPMPSCNHRPED | 0.655 ± 0.03
123 | TPPHNRERPTVQ | 0.657 ± 0.03
124 | TPPIPTTTSNFS | 0.734 ± 0.052
125 | TPPPASALPPSP | 0.705 ± 0.014

Row | Sequence | protein stability index
126 | TPPPRSFHRFPC | 0.694 ± 0.043
127 | TPPSPHPCPSPL | 0.797 ± 0.064
128 | TPPVPVPPPQLL | 0.748 ± 0.044
129 | TPTPGCYIASLT | 0.759 ± 0.21
130 | TQHKANQGLELI | 0.663 ± 0.008
131 | TQKESEKLNMSK | 0.667 ± 0.064
132 | TQNRCGGPSIAL | 0.634 ± 0.03
133 | TQRIEKEPTKKY | 0.703 ± 0.04
134 | TRCKLALEKLVG | 0.5986 ± 0.0015
135 | TRGMDYWLFTGD | 0.706 ± 0.0031
136 | TRGPKYTMVVKR | 0.672 ± 0.017
137 | TRKESNTIHNEQ | 0.688 ± 0.014
138 | TRRGAAAEDQEK | 0.697 ± 0.065
139 | TRRVPNSRTGTI | 0.74 ± 0.072
140 | TRSLPSSSSHSL | 0.727 ± 0.011
141 | TRTCGRRRAGGR | 0.633 ± 0.1
142 | TRTRARAIQTAT | 0.6462 ± 0.0054
143 | TRWRPPCAPSGS | 0.742 ± 0.076
144 | TSAPDSPVPSLP | 0.695 ± 0.015
145 | TSGAQSTRLGRE | 0.778 ± 0.11
146 | TSIAKRNGLLPG | 0.719 ± 0.13
